Assay [1] addresses T1, MKK7KD (constitutively active kinase domain of MKK7, residues 101 to 405, S287D and T291D, His6 fusion) (UniProt O14733-3 101-405).
T1 construct: range 101-405; also called MKKKD; not shown: His6 tag
T1 sequence (looked up): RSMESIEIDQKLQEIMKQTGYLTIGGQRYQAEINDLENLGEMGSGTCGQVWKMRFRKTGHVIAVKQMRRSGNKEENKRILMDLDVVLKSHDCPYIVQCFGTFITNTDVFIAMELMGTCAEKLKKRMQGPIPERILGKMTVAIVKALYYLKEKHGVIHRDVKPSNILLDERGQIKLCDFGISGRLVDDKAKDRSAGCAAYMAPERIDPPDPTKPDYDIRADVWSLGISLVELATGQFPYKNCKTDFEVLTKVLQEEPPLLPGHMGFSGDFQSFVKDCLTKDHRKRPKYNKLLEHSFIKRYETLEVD
Nature of the assay: SPR (Biacore 3000), Gadd45β immobilized, MKK7KD injected at 1-25 nM. The procedure: On another channel the same procedure of activation with EDC/NHS and inactivation with ethanolamine was performed.

For assay [2], the target named is T1, MKK7KD (constitutively active kinase …). Nature of the assay: SPR (Biacore 3000), MKK7KD immobilized, Gadd45β injected at 20-200 nM. A general note: SPR reads the build-up and loss of mass on a sensor chip optically.

B1: Full length human Gadd45β (other, UniProt O75293 1-160, looked up)
chain: MTLEELVACDNAAQKMQTVTAAVEELLVAAQRQDRLTVGVYESAKLMNVDPDSVVLCLLAIDEEEEDDIALQIHFTLIQSFCCDNDINIVRVSGMQRLAQLLGEPAETQGTTEARDLHCLLVTNPHTDAWKSHGLVEVASYCEESRGNNQWVPYISLQER
notes: also called Gadd45β (SPR)
By Kd is commonly meant the free concentration of one partner at which half of the binding sites on the other are occupied at equilibrium, for simple one-to-one binding. Low readings indicate higher affinity, high ones lower affinity. For B1, the Kd in assay [1] came to 3.4 nM; in assay [2], 4 nM.

For the origin of these results see patent US20120277164A1 (IMPERIAL INNOVATIONS, published 2012).
